In US20230321209A1 one finds list of priority (rank by SPR binding, high binders listed first) data, which are given here for seven molecules.

For this test, the target named is human Adenovirus capsid. As to the kind of experiment: SPR, peptide on adenovirus capsid (FIGS. 13A-13B). For orientation: In SPR one partner is held on a chip, and binding of the other changes the refractive index at the surface.
In turn, KKKKKKAQFAPSASAFFGMSRIGMEV [NCAP_AQFAP SARS-CoV2 peptide with 6K poly-lysine tail] came in with a list of priority (rank by SPR binding, high binders listed first) of 7 rank.

KKKKKKKKKGLEAPFLYLYALVYFLQSINFV [AP3A_GLEAP SARS-CoV2 peptide with 9K poly-lysine tail] registered a list of priority (rank by SPR binding, high binders listed first) of 2 rank.

The molecule KKKKKKKKKKLIFLWLLWPVTLACFVLAAV [VME1_KLIFL SARS-CoV2 peptide with 9K poly-lysine tail] came in with a list of priority (rank by SPR binding, high binders listed first) of 4 rank.

The molecule KKKKKKKVTLVFLFVAAIFYLITPVHVMSK [R1AB_KVTLV SARS-CoV2 peptide with 6K poly-lysine tail] returned a list of priority (rank by SPR binding, high binders listed first) of 3 rank.

Turning to KKKKKKLPKEITVATSRTLSYYKLGA [VME1_LPKEI SARS-CoV2 peptide with 6K poly-lysine tail], the list of priority (rank by SPR binding, high binders listed first) was found to be 6 rank.

Molecule KKKKKKALALLLLDRLNQLESKMSGK [NCAP_ALALL SARS-CoV2 peptide with 6K poly-lysine tail] had a list of priority (rank by SPR binding, high binders listed first) of 9 rank.

For the molecule KKKKKKKKKGLVAEWFLAYILFTRFFYVL [R1AB_GLVAE SARS-CoV2 peptide with 9K poly-lysine tail], the list of priority (rank by SPR binding, high binders listed first) is 1 rank.
